{"source": "paper PMC7954794", "about": "“Protein context shapes the specificity of SH3 domain-mediated interactions in vivo” (Nature Communications, 2021)", "molecules": {"B1": {"name": "SLA1 WT¦WT¦WT (protein, UniProt P32790 1-1244, looked up)", "Actin cytoskeleton-regulatory …": "MTVFLGIYRAVYAYEPQTPEELAIQEDDLLYLLQKSDIDDWWTVKKRVIGSDSEEPVGLVPSTYIEEAPVLKKVRAIYDYEQVQNADEELTFHENDVFDVFDDKDADWLLVKSTVSNEFGFIPGNYVEPENGSTSKQEQAPAAAEAPAATPAAAPASAAVLPTNFLPPPQHNDRARMMQSKEDQAPDEDEEGPPPAMPARPTATTETTDATAAAVRSRTRLSYSDNDNDDEEDDYYYNSNSNNVGNHEYNTEYHSWNVTEIEGRKKKKAKLSIGNNKINFIPQKGTPHEWSIDKLVSYDNEKKHMFLEFVDPYRSLELHTGNTTTCEEIMNIIGEYKGASRDPGLREVEMASKSKKRGIVQYDFMAESQDELTIKSGDKVYILDDKKSKDWWMCQLVDSGKSGLVPAQFIEPVRDKKHTESTASGIIKSIKKNFTKSPSRSRSRSRSKSNANASWKDDELQNDVVGSAAGKRSRKSSLSSHKKNSSATKDFPNPKKSRLWVDRSGTFKVDAEFIGCAKGKIHLHKANGVKIAVAADKLSNEDLAYVEKITGFSLEKFKANDGSSSRGTDSRDSERERRRRLKEQEEKERDRRLKERELYELKKARELLDEERSRLQEKELPPIKPPRPTSTTSVPNTTSVPPAESSNNNNSSNKYDWFEFFLNCGVDVSNCQRYTINFDREQLTEDMMPDINNSMLRTLGLREGDIVRVMKHLDKKFGRENIASIPTNATGNMFSQPDGSLNVATSPETSLPQQLLPQTTSPAQTAPSTSAETDDAWTVKPASKSESNLLSKKSEFTGSMQDLLDLQPLEPKKAAASTPEPNLKDLEPVKTGGTTVPAAPVSSAPVSSAPAPLDPFKTGGNNILPLSTGFVMMPMITGGDMLPMQRTGGFVVPQTTFGMQSQVTGGILPVQKTGNGLIPISNTGGAMMPQTTFGAAATVLPLQKTGGGLIPIATTGGAQFPQTSFNVQGQQQLPTGSILPVQKTANGLISANTGVSMPTVQRTGGTMIPQTSFGVSQQLTGGAMMTQPQNTGSAMMPQTSFNAVPQITGGAMMPQTSFNALPQVTGGAMMPLQRTGGALNTFNTGGAMIPQTSFSSQAQNTGGFRPQSQFGLTLQKTGGIAPLNQNQFTGGAMNTLSTGGVLQQQQPQTMNTFNTGGVMQELQMMTTFNTGGAMQQPQMMNTFNTDGIMQQPQMMNTFNTGGAMQQPQQQALQNQPTGFGFGNGPQQSRQANIFNATASNPFGF"}}, "test_system": "Sla1 PPIs", "assay": "DHFR-PCA of Sla1 SH3-swapped, -shuffled or -deleted baits (Fig. 2E, 4B, 4D, S5A)", "type": "cell-based, Saccharomyces cerevisiae", "from_the_text": "The stuffing of YSC84 SH3 rendered the strain sterile and was therefore not used for this study as the assays require crosses. For genes containing two SH3s (BZZ1 and BEM1), a combination of this first stuffer with a second one ([…]) coding for a highly similar linker ([…]) was used, which allowed targeting each SH3 position independently. The two N-terminal domains of SLA1, which are separated by six nucleotides, were stuffed by a single stuffer. Cells containing pCAS were selected via the G418 resistance cassette from the plasmid on YPD plates (YPD + NAT 100 μg/ml (DHFR F[1,2] selection) + G418 200 µg/mL (Bioshop Canada)). Colonies were randomly selected and grown in YPD media without G418 to allow plasmid loss. The correct insertion of the stuffer was validated by PCR and Sanger sequencing. The SH3-swapped, -shuffled, and -mutated strains were constructed following a second CRISPR–Cas9 editing step with the same procedures. The stuffer sequences were targeted by specific gRNAs (one gRNA per stuffer) and replaced by PCR amplified specific SH3 (with 40 bp homology arms) or libraries of mutated SH3 domains for Deep Mutational Scanning (DMS) with 78 bp flanking homology regions. Validation of the SH3 domain insertions was done as we previously described except for DMS libraries (see below).\nThe overall DHFR-PCA pipeline is based on Tarassov et al.[43] and the procedures have also been published as a visualized protocol. The screens were performed with robotically manipulated pin tools (BM5-SC1, S&P Robotics Inc.). First, the preys were cherry-picked from 96-well plates to omnitrays in a 384 format on YPD + HPH solid media. Plates were then combined into the 1536 format on YPD + HPH. The array was constituted of 575 preys previously shown to interact physically with at least one SH3-containing protein as reported in BioGRID V3.4.16 along with 40 negative controls. The prey array comprised a border of control strains of two rows and two columns corresponding to the PPI between LSM8-DHFR F[1,2] and CDC39-DHFR F[3]. This double border was used to remove border effects. Preys are present in duplicate at a randomized position in the 1536 array (except for YAL041W which is present four times per array). Baits were crossed with two prey plates, resulting in four independent bait–prey tests for each PPI. Baits were grown in liquid YPD + NAT and then transferred on solid YPD + NAT omnitrays. They were then replicated on YPD + NAT omnitrays in 1536 array format. Mating of DHFR F[1,2] baits with DHFR F[3] preys was done on YPD followed by incubation at 30 °C for 48 h. Two diploid selection steps were performed by replicating the plates on YPD + NAT + HPH and incubating them for 48 h at 30 °C. Pictures were taken at the end of the second diploid selection for quality control. All images were acquired with a EOS Rebel T5i camera (Canon). Finally, the diploid cells were replicated on omnitrays containing solid PCA selection media and incubated for 4 days as a first selection step in a spImager custom robotic platform (S&P Robotics Inc.). Cells were replicated for a second PCA selection step and incubated in the same manner. The last time point of the second PCA selection step was used for the data analysis as in previous studies using this method.\nA separate DHFR-PCA screen was performed for the Sla1 SH3 shuffling experiment, with the same analysis as previously described. Three plates had no detectable level of background, which correspond to the second plate of the three Sla1 SH3 WT re-insertion controls. They were attributed the average of the background of the three first plates of the same baits. The threshold was also determined based on the distribution of the PCA scores of all PPIs and corresponds to the top 2.75% of all colonies detected in this experiment. […] Almost all true PPIs are from four replicates (96.2%). […]", "data": [{"molecule": "B1", "values": [{"measurement": "medrep = log2 median colony size normalized to plate background (PCA score)", "setting": "prey YAL005C, 4 replicates", "value": 4.576}, {"measurement": "medrep = log2 median colony size normalized to plate background (PCA score)", "setting": "prey YAL005C, 4 replicates, listed as SLA1 WT¦WT¦WT*", "value": 5.708}, {"measurement": "medrep = log2 median colony size normalized to plate background (PCA score)", "setting": "prey YBL007C, 4 replicates", "value": 3.858}, {"measurement": "medrep = log2 median colony size normalized to plate background (PCA score)", "setting": "prey YBL007C, 4 replicates, listed as SLA1 WT¦WT¦WT*", "value": 4.787}, {"measurement": "medrep = log2 median colony size normalized to plate background (PCA score)", "setting": "prey YBR234C, 4 replicates", "value": 4.193}, {"measurement": "medrep = log2 median colony size normalized to plate background (PCA score)", "setting": "prey YBR234C, 4 replicates, listed as SLA1 WT¦WT¦WT*", "value": 5.208}, {"measurement": "medrep = log2 median colony size normalized to plate background (PCA score)", "setting": "prey YCR009C, 2 replicates", "value": 2.175}, {"measurement": "medrep = log2 median colony size normalized to plate background (PCA score)", "setting": "prey YCR030C, 4 replicates", "value": 2.158}, {"measurement": "medrep = log2 median colony size normalized to plate background (PCA score)", "setting": "prey YCR088W, 4 replicates", "value": 3.971}, {"measurement": "medrep = log2 median colony size normalized to plate background (PCA score)", "setting": "prey YCR088W, 4 replicates, listed as SLA1 WT¦WT¦WT*", "value": 4.931}, {"measurement": "medrep = log2 median colony size normalized to plate background (PCA score)", "setting": "prey YDL229W, 4 replicates", "value": 4.158}, {"measurement": "medrep = log2 median colony size normalized to plate background (PCA score)", "setting": "prey YDL229W, 4 replicates, listed as SLA1 WT¦WT¦WT*", "value": 5.378}, {"measurement": "medrep = log2 median colony size normalized to plate background (PCA score)", "setting": "prey YDR129C, 4 replicates", "value": 3.756}, {"measurement": "medrep = log2 median colony size normalized to plate background (PCA score)", "setting": "prey YDR129C, 4 replicates, listed as SLA1 WT¦WT¦WT*", "value": 4.737}, {"measurement": "medrep = log2 median colony size normalized to plate background (PCA score)", "setting": "prey YFL010C, 2 replicates", "value": 3.147}, {"measurement": "medrep = log2 median colony size normalized to plate background (PCA score)", "setting": "prey YFR024C-A, 4 replicates", "value": 3.943}, {"measurement": "medrep = log2 median colony size normalized to plate background (PCA score)", "setting": "prey YFR024C-A, 4 replicates, listed as SLA1 WT¦WT¦WT*", "value": 4.815}, {"measurement": "medrep = log2 median colony size normalized to plate background (PCA score)", "setting": "prey YGL206C, 4 replicates", "value": 3.77}, {"measurement": "medrep = log2 median colony size normalized to plate background (PCA score)", "setting": "prey YGL206C, 4 replicates, listed as SLA1 WT¦WT¦WT*", "value": 4.526}, {"measurement": "medrep = log2 median colony size normalized to plate background (PCA score)", "setting": "prey YGR229C, 4 replicates", "value": 2.045}, {"measurement": "medrep = log2 median colony size normalized to plate background (PCA score)", "setting": "prey YHR016C, 4 replicates", "value": 3.008}, {"measurement": "medrep = log2 median colony size normalized to plate background (PCA score)", "setting": "prey YHR016C, 4 replicates, listed as SLA1 WT¦WT¦WT*", "value": 3.247}, {"measurement": "medrep = log2 median colony size normalized to plate background (PCA score)", "setting": "prey YHR064C, 4 replicates", "value": 3.59}, {"measurement": "medrep = log2 median colony size normalized to plate background (PCA score)", "setting": "prey YHR064C, 4 replicates, listed as SLA1 WT¦WT¦WT*", "value": 4.449}, {"measurement": "medrep = log2 median colony size normalized to plate background (PCA score)", "setting": "prey YIL062C, 4 replicates", "value": 3.558}, {"measurement": "medrep = log2 median colony size normalized to plate background (PCA score)", "setting": "prey YIL062C, 4 replicates, listed as SLA1 WT¦WT¦WT*", "value": 4.388}, {"measurement": "medrep = log2 median colony size normalized to plate background (PCA score)", "setting": "prey YIR006C, 4 replicates", "value": 3.754}, {"measurement": "medrep = log2 median colony size normalized to plate background (PCA score)", "setting": "prey YIR006C, 4 replicates, listed as SLA1 WT¦WT¦WT*", "value": 4.634}, {"measurement": "medrep = log2 median colony size normalized to plate background (PCA score)", "setting": "prey YKL013C, 4 replicates", "value": 3.269}, {"measurement": "medrep = log2 median colony size normalized to plate background (PCA score)", "setting": "prey YKL013C, 4 replicates, listed as SLA1 WT¦WT¦WT*", "value": 3.776}, {"measurement": "medrep = log2 median colony size normalized to plate background (PCA score)", "setting": "prey YKL054C, 4 replicates", "value": 2.47}, {"measurement": "medrep = log2 median colony size normalized to plate background (PCA score)", "setting": "prey YKL054C, 4 replicates, listed as SLA1 WT¦WT¦WT*", "value": 3.124}, {"measurement": "medrep = log2 median colony size normalized to plate background (PCA score)", "setting": "prey YKL117W, 4 replicates", "value": 3.846}, {"measurement": "medrep = log2 median colony size normalized to plate background (PCA score)", "setting": "prey YKL117W, 4 replicates, listed as SLA1 WT¦WT¦WT*", "value": 4.725}, {"measurement": "medrep = log2 median colony size normalized to plate background (PCA score)", "setting": "prey YKL129C, 4 replicates", "value": 2.117}, {"measurement": "medrep = log2 median colony size normalized to plate background (PCA score)", "setting": "prey YLR337C, 4 replicates", "value": 3.738}, {"measurement": "medrep = log2 median colony size normalized to plate background (PCA score)", "setting": "prey YLR337C, 4 replicates, listed as SLA1 WT¦WT¦WT*", "value": 4.734}, {"measurement": "medrep = log2 median colony size normalized to plate background (PCA score)", "setting": "prey YLR370C, 4 replicates", "value": 3.494}, {"measurement": "medrep = log2 median colony size normalized to plate background (PCA score)", "setting": "prey YLR370C, 4 replicates, listed as SLA1 WT¦WT¦WT*", "value": 4.461}, {"measurement": "medrep = log2 median colony size normalized to plate background (PCA score)", "setting": "prey YMR109W, 4 replicates", "value": 2.836}, {"measurement": "medrep = log2 median colony size normalized to plate background (PCA score)", "setting": "prey YMR109W, 4 replicates, listed as SLA1 WT¦WT¦WT*", "value": 3.116}, {"measurement": "medrep = log2 median colony size normalized to plate background (PCA score)", "setting": "prey YNL084C, 4 replicates", "value": 3.76}, {"measurement": "medrep = log2 median colony size normalized to plate background (PCA score)", "setting": "prey YNL084C, 4 replicates, listed as SLA1 WT¦WT¦WT*", "value": 4.641}, {"measurement": "medrep = log2 median colony size normalized to plate background (PCA score)", "setting": "prey YNL138W, 4 replicates", "value": 2.038}, {"measurement": "medrep = log2 median colony size normalized to plate background (PCA score)", "setting": "prey YNL243W, 4 replicates", "value": 3.418}, {"measurement": "medrep = log2 median colony size normalized to plate background (PCA score)", "setting": "prey YNL243W, 4 replicates, listed as SLA1 WT¦WT¦WT*", "value": 4.392}, {"measurement": "medrep = log2 median colony size normalized to plate background (PCA score)", "setting": "prey YOR181W, 4 replicates", "value": 3.933}, {"measurement": "medrep = log2 median colony size normalized to plate background (PCA score)", "setting": "prey YOR181W, 4 replicates, listed as SLA1 WT¦WT¦WT*", "value": 4.903}]}]}
